Data taken from patent US20190367615A1 (BEIJING HANMI PHARM, published 2019).

How the values were obtained:
[1] = target: Recombinant human CD28 (Sino Biological Inc.) (human, UniProt P10747 19-152); experiment: binding specificity ELISA, coated recombinant human CD28, anti-human IgG-HRP
Experimental: (§1) The plate was washed five times with PBST and blocked with 300 μL/well of PBST containing 1% BSA and incubated at 25° C. for 1 hour. The plate was washed five times with PBST. […] The plate was washed five times with PBST. Then, horseradish peroxidase-labeled anti-human IgG antibody (Chemicon, Catalog Number AP309P) 1:2000 diluted in PBST containing 1% BSA was added, 100 μL was added to each well, incubated at 25° C. for 1 hour. The plate was washed five times with PBST. 100 μL/well of colorimetric substrate TMB was added and incubated at room temperature for 10 minutes. Color development was terminated by adding 100 μL/well of 1 M H₂SO₄. The absorbance at 450 nm was read on a microplate reader.

[2] = target: T1, Recombinant human CTLA4 (Sino Biological Inc.) (human, UniProt P16410 36-162); experiment: binding specificity ELISA, coated recombinant human CTLA4, anti-human IgG-HRP
T1 sequence (looked up): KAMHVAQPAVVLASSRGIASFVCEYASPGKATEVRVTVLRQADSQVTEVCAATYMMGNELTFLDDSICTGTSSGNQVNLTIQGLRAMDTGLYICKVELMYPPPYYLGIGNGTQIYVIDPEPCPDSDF
Experimental: as §1

[3] = target: T2, Recombinant human PD-L2 (Sino Biological Inc.) (human, UniProt Q9BQ51 20-220); experiment: binding specificity ELISA, coated recombinant human PD-L2, anti-human IgG-HRP
T2 sequence (looked up): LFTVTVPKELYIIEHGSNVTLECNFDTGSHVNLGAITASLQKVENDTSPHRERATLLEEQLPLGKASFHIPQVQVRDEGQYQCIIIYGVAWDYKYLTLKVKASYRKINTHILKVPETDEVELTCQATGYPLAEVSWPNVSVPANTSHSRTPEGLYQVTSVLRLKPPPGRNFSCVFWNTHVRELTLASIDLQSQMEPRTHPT
Experimental: as §1

[4] = target: Recombinant monkey PD-1 (Sino Biological Inc.) (monkey); experiment: species specificity ELISA, coated recombinant monkey PD-1 (1 ug/mL), anti-human IgG-HRP, OD450nm
Experimental: Recombinant human PD-1, monkey PD-1, rat PD-1 and mouse PD-1 (all purchased from Sino Biological Inc.), were coated on a 96-well high-absorbing ELISA plate with a carbonate buffer solution with pH 9.6, the coating concentration was 1 μg/mL, the coating amount was 100 μL per well, and the coating was carried out at 4° C. overnight. The plate was washed five times with PBST and blocked with 300 μL/well of PBST containing 1% BSA, and then incubated at 25° C. for 1 hour. The plate was washed five times with PBST. […] The plate was washed five times with PBST. Then, horseradish peroxidase-labeled anti-human IgG antibody (Chemicon, Catalog Number AP309P) 1:2000 diluted in PBST containing 1% BSA was added, 100 μL per well, incubated at 25° C. for 1 hour. The plate was washed five times with PBST. 100 μL/well of colorimetric substrate TMB was added and incubated at room temperature for 10 minutes. Color development was terminated by adding 100 μL/well of 1 M H₂SO₄: The absorbance at 450 nm was read on a microplate reader.

[5] = target: T3, Recombinant human BTLA (Sino Biological Inc.) (human, UniProt Q7Z6A9 31-157, limits assumed); experiment: binding specificity ELISA, coated recombinant human BTLA, anti-human IgG-HRP
T3 sequence (looked up): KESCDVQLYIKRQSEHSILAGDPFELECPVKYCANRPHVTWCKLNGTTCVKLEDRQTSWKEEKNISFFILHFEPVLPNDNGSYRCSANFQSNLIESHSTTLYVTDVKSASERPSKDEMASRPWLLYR
Experimental: as §1

Chain of Recombinant human CD28 (Sino Biological Inc.) (P10747 19-152 limits assumed): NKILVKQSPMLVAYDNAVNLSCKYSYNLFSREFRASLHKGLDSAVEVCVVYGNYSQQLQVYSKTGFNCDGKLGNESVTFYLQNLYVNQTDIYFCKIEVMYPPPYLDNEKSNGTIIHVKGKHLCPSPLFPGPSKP

B1: anti-human PD-1 chimeric monoclonal antibody (antibody, human IgG4 S228P, kappa, V domains shown)
VH: EVQLQESGGGLVKPGGSLKLSCAASGFTFSSYGMSWVRQTPEKRLEWVASISGGGRYTYYPDSMKGRFTISRDNAKNNLHLQMSSLRSEDTALYYCVYEYFYTMDYWGQGTSVTVSS
VL: DIVLTQSPATLSVTPGDSVSLSCRANQSISNNLHWYQQRSHESPRLLIRFASQSISGIPSRFSGSGSGTDFTLSINSVETEDFGMYFCQQSDNWPLTFGAGTKLEIKR
notes: expressed in 293F cells; also called Anti-human PD-1 Chimeric Antibody; chimeric anti-human PD-1 monoclonal antibody
binding result [1]: no binding | binding result [2]: no binding | binding result [3]: no binding | EC50 [4]: 0.1 nM | binding result [5]: no binding
